Holding throughout (assay): co-IP; LUMIER in HEK293TN cells: Prot-A fusion co-transfected with Renilla luciferase fusion (AN always the luciferase fusion with the interactors); luciferase activity before (input) and after pulldown; percentage pulldown = pulldown/input x 100; empty vectors as negative control; positive if more than two times the background
Common to all, as to conditions: partners not purified

In assay [1] the target is T1, POLY(A) BINDING PROTEIN 2 (PAB2), Prot-A fusion (Arabidopsis thaliana, UniProt P42731 1-629).
T1 construct: CDS amplified from Col-0 cDNA; also called AtPAB2; source: HEK293TN cells, transfected; not shown: Protein A (Staphylococcus aureus), N-terminal, kept
T1 sequence (looked up): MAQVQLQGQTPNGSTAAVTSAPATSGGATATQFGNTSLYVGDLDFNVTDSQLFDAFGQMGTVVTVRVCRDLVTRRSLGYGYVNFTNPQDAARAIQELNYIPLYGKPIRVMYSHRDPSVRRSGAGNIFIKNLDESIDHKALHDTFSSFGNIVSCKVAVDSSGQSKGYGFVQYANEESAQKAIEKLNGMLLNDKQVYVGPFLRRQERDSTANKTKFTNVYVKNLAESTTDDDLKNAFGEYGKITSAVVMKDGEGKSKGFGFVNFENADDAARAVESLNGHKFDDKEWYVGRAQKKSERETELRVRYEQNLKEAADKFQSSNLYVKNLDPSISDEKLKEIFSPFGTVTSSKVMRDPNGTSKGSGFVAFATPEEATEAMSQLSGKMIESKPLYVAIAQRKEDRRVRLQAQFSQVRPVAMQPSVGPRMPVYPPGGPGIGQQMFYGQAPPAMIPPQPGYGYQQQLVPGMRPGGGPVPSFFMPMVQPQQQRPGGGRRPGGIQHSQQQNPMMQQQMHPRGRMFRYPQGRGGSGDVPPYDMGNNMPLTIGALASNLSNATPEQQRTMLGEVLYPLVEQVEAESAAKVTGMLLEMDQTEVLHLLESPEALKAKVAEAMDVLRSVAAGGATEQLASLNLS

Assay [2] has as its target T2, TANDEM ZINC FINGER 3 (TZF3), Prot-A fusion (Arabidopsis thaliana, UniProt Q9M0G2 1-356).
T2 construct: Tandem zinc finger 3, Arabidopsis thaliana, AT4G29190; CDS amplified from Col-0 cDNA; source: HEK293TN cells, transfected; not shown: Protein A (Staphylococcus aureus), N-terminal, kept
T2 sequence (looked up): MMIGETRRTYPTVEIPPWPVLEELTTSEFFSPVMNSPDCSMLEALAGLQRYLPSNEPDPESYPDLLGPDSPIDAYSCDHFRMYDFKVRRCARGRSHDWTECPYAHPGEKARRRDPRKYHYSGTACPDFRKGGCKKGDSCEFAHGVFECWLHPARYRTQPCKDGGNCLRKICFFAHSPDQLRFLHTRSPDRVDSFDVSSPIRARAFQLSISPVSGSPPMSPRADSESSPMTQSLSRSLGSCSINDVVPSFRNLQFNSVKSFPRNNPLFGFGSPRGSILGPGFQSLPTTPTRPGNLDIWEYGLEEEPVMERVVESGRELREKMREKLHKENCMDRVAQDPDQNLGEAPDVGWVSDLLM

Assay [3] deals with T3, KH DOMAIN-CONTAINING PROTEIN (AT2G38610), Prot-A fusion (Arabidopsis thaliana, UniProt Q9ZVI3 1-286).
T3 construct: KH domain-containing protein, Arabidopsis thaliana, AT2G38610; CDS amplified from Col-0 cDNA; source: HEK293TN cells, transfected; not shown: Protein A (Staphylococcus aureus), N-terminal, kept
T3 sequence (looked up): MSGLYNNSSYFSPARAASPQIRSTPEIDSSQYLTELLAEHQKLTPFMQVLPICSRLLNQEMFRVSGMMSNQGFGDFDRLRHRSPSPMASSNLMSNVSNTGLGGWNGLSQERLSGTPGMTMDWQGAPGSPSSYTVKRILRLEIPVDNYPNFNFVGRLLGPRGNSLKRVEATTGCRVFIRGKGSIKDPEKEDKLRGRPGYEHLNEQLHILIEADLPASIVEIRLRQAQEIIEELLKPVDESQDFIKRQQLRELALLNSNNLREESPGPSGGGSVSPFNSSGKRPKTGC

B1: AN, Renilla luciferase fusion (LUMIER) (natural protein, Arabidopsis thaliana, UniProt O23702 1-636, looked up)
chain: MSKIRSSATMPHRDQPSPASPHVVTLNCIEDCALEQDSLAGVAGVEYVPLSRIADGKIESATAVLLHSLAYLPRAAQRRLRPHQLILCLGSADRAVDSTLAADLGLRLVHVDTSRAEEIADTVMALILGLLRRTHLLSRHALSASGWLGSLQPLCRGMRRCRGMVLGIVGRSVSARYLASRSLAFKMSVLYFDVPEGDEERIRPSRFPRAARRMDTLNDLLAASDVISLHCALTNDTVQILNAECLQHIKPGAFLVNTGSCQLLDDCAVKQLLIDGTIAGCALDGAEGPQWMEAWVKEMPNVLILPRSADYSEEVWMEIREKAISILHSFFLDGVIPSNTVSDEEVEESEASEEEEQSPSKHEKLAIVESTSRQQGESTLTSTEIVRREASELKESLSPGQQHVSQNTAVKPEGRRSRSGKKAKKRHSQQKYMQKTDGSSGLNEESTSRRDDIAMSDTEEVLSSSSRCASPEDSRSRKTPLEVMQESSPNQLVMSSKKFIGKSSELLKDGYVVALYAKDLSGLHVSRQRTKNGGWFLDTLSNVSKRDPAAQFIIAYRNKDTVGLRSFAAGGKLLQINRRMEFVFASHSFDVWESWSLEGSLDECRLVNCRNSSAVLDVRVEILAMVGDDGITRWID
notes: ANGUSTIFOLIA (AN), Arabidopsis thaliana, AT1G01510; CDS amplified from Col-0 cDNA; in the dimerisation test the second copy must have been the N-terminal protein A fusion (surmised from the LUMIER format); also called wild-type AN; source: HEK293TN cells, transfected; not shown: Renilla reniformis luciferase, N-terminal, kept
For B1, the figures for the “fold change from background” value in assay [1], in assay [2] and in assay [3] were 7.67 fold, 5.25 fold and 2.93 fold, respectively. Further, the percentage pulldown stood at 0.71% in assay [1], 0.5% in assay [2] and 0.28% in assay [3].

The values above are taken from PMC5469197, “ANGUSTIFOLIA, a Plant Homolog of CtBP/BARS Localizes to Stress Granules and Regulates Their Formation” (Frontiers in Plant Science, 2017).
